# Test results from patent publication US11692007B2, “Amino deprotection using 3-(diethylamino)propylamine” (priority 2021, dated 2023).
# Like-named read-outs stand apart in the source and are kept apart here. Marks after values point to notes of the source that are not given here. Non-standard residues stand in square brackets, D forms with d. Residues, ends and D or L forms follow the SMILES beside them. *: point of attachment. dPhe(4-NHCONH2) = NC(=O)Nc1ccc(C[C@@H](N)C(=O)O)cc1; Dihydroorotyl(S) = O=C1C[C@@H](C(=O)*)NC(=O)N1; dPhe(4-Cl) = N[C@H](Cc1ccc(Cl)cc1)C(=O)O; Phe(4-NH2) = Nc1ccc(C[C@H](N)C(=O)O)cc1; d2Nal = N[C@H](Cc1ccc2ccccc2c1)C(=O)O; Lys(iPr) = CC(C)NCCCC[C@H](N)C(=O)O; d3Pal = N[C@H](Cc1cccnc1)C(=O)O
# Legend:
# rat = settings: in vivo; cited from earlier work
# [1] = for Hydantoin impurity (VI) at RRT 1.03 / purity (HPLC) / specified impurity RRT 0.85 (X, unknown): RT; for Hydantoin impurity (VI) at RRT 1.03: at both t0 and t3 (24 h); for specified impurity RRT 0.85 (X, unknown): not present at t0
# Description: Degarelix was kept in a solution of 10% DEAPA in DMF for 24 h to simulate conditions corresponding to those used for removal of Fmoc group during full SPPS. Samples were analyzed by HPLC at four checkpoints up to 24 h and the four HPLC profiles obtained were compared as shown in FIG. 3 and FIG. 4 (for detailed experimental procedure, see Example 7).
# Example 7: HPLC analyses were performed on Agilent 1260 Infinity II system, using columns Waters Cortecs C18 2.7 μm, 4.6×150 mm; temperature: 30° C.; injection volume: 10 μL, UV: 245 nm; pH 5.5 Phosphate Buffer: 25 mM Potassium Phosphate to pH 5.5; pH 3.5 Phosphate Buffer: 25 mM Potassium Phosphate to pH 3.5; mobile phases: 75% pH 5.5 Buffer: 25% CH3CN (A); 65% pH 3.5 Buffer: 35% CH3CN (B); flow: 1.0 mL/min, sample concentration 0.5 mg/ml; gradient: 0-5 min 0% B, 5-45 min […], 45-46 min 100-0% B, 46-60 min 0% B.
# The stability at RT was followed for 24 h at four check points, i.e. t0, 1 h (t1), 4 h (t2) and 24 h (t3).
# Superimposed HPLC profiles are shown in FIG. 3 (Test 1) and FIG. 4 (Test 2).
# [2] = Description: A sample of Degarelix, as a lyophilized powder of about 99% of purity, was dissolved at a concentration of 17 g/L in DMF with 10% of piperidine, TMG, TBA or DEAPA. The stability at RT was measured by HPLC at t=0 (t0), t=8 hr (t1), and t=24 hr (t3) using an Agilent 1260 Infinity II system, using a column Waters Xterra Shield RP18, 3.5 μm, 4.6×150 mm; temperature: 25° C.; sample concentration 0.5 mg/mL; injection volume: 10 μL; flow: 0.7 mL/min; buffer: 65% 40 mM ammonium acetate, pH 10:35% ACN; elution: isocratic, 0-30 min 100% buffer; detection: UV 245 nm.
# mice = settings: acute oral toxicity; cited from earlier work
# rabbits = settings: acute oral toxicity; cited from earlier work
# rats = settings: acute oral toxicity; cited from earlier work
# [3] = Stress stability test of resin-bound H-Ala-Lys-Asp-Gly-Tyr-Ile-OH with piperidine, DEAPA, TMG and TBA in DMF or NBP (aspartimide formation, HPLC); assay type: physicochemical
# Description: A stress test was then performed whereby the model peptide was submitted to basic conditions to simulate repeated alpha-amino deprotection cycles. Resin-bound H-Ala-Lys-Asp-Gly-Tyr-Ile-OH (still bearing side-chain protections) was treated in parallel with 20% piperidine, 10% DEAPA, 5% TMG or 20% TBA solutions, in DMF or NBP, for 4 h at RT.
# As shown in Scheme 2 above, the formation of the aspartimide side-product may be followed by nucleophilic attack onto the aspartimide ring with formation of further by-products, like amine-adducts (amine-mediated ring-opening) and alpha- and beta-peptides (water-mediated ring-opening).
# The hexapeptide samples obtained after such treatments with the Fmoc cleavage solutions were analyzed by HPLC and the results are shown in Table 1 (for detailed experimental procedure, see Example 6).
# In Table 1, Δ Asp indicates the amount of additional overall aspartimide impurities (comprising piperidides by-products) resulting from the stress test relative to the initial aspartimide amount (2.6%).
# Examples 1-6: HPLC-MS analyses were performed on Agilent 1260 Infinity II system coupled to an electrospray ionization mass spectrometer (positive-ion mode, m/z=100-1500, fragmentor 30 V), using columns Agilent Zorbax-SB-C18 5 μm, 250×4.6 mm or Phenomenex Luna C18 5 μm, 250×4.6 mm; temperature: 25° C.; injection volume: 10 μL, UV: 220 nm, mobile phases: H2O+0.08% TFA (A) and CH3CN+0.08% TFA (B), flow: 0.5 mL/min or 1.0 mL/min.
# 100 mg of dry resin H-Ala-Lys-Asp-Gly-Tyr-Ile-Trt-PS (prepared as described in Example 2) were swelled in 2 mL of DMF or NBP for 30 minutes. The resin was filtered and a 2 mL solution of 10% DEAPA (or 20% piperidine, 5% TMG, 20% TBA) in DMF or NBP was added to the resin and stirred for 4 hours at RT. The resin was filtered, washed with DMF or NBP (3×2 mL) and with DCM (3×2 mL). Dry peptide resin was suspended in 3 mL of the mixture TFA/TIS/H2O (90/5/5 v/v/v) and stirred for 2 h. The resin was filtered off and diisopropylether (10 mL) cooled to 4° C. was added to the solution. The peptide was filtered and dried in vacuo to obtain crude H-Ala-Lys-Asp-Gly-Tyr-Ile-OH (II) and aspartimide impurity (III) in different ratios according to the used conditions.
# Table 1 in the description lists the results. ΔAsp indicates the difference between the aspartimide amount formed after stress tests (including piperidides if present) and that arising from the hexapeptide synthesis (2.6%, see Example 2).
# HPLC-MS analysis gradient: 0-30 min 10-40% B; flow: 0.5 mL/min.
# [4] = Test 1, about 170 g/L in DMF with 10% DEAPA, t3 (24 h)
# [5] = Test 2, about 17 g/L in DMF with 10% DEAPA, t3 (24 h)
# [6] = 24 hr at RT, 10% DEAPA in DMF, 17 g/L
# [7] = 24 hr at RT, 10% TBA in DMF, 17 g/L
# [8] = 24 hr at RT, 10% TMG in DMF, 17 g/L
# [9] = 24 hr at RT, 10% piperidine in DMF, 17 g/L
# [10] = duration 0, base solution none, 17 g/L in DMF
# [11] = 10% DEAPA in DMF, 4 h at RT, resin-bound
# [12] = 10% DEAPA in NBP, 4 h at RT, resin-bound
# [13] = 20% TBA in DMF, 4 h at RT, resin-bound
# [14] = 20% TBA in NBP, 4 h at RT, resin-bound
# [15] = 20% piperidine in DMF, 4 h at RT, resin-bound
# [16] = 20% piperidine in NBP, 4 h at RT, resin-bound
# [17] = starting point, after synthesis in DMF with 20% pip, before stress test
compound,measurement,setting,value
"CCN(CC)CCCN [DEAPA, 3-(diethylamino)propylamine]",LD50,rat,830 mg/kg
"CC(=O)N[C@H](Cc1ccc2ccccc2c1)C(=O)N[C@H](Cc1ccc(Cl)cc1)C(=O)N[C@H](Cc1cccnc1)C(=O)N[C@@H](CO)C(=O)N[C@@H](Cc1ccc(NC(=O)[C@@H]2CC(=O)NC(=O)N2)cc1)C(=O)N[C@H](Cc1ccc(NC(N)=O)cc1)C(=O)N[C@@H](CC(C)C)C(=O)N[C@@H](CCCCNC(C)C)C(=O)N1CCC[C@H]1C(=O)N[C@H](C)C(N)=O [Degarelix, Ac-D-Nal-D-Cpa-D-Pal-Ser-Aph(Hor)-D-Aph(Cbm)-Leu-Lys(iPr)-Pro-D-Ala-NH2] (Ac-[d2Nal][dPhe(4-Cl)][d3Pal]S[Phe(4-NH2)](Dihydroorotyl(S))[dPhe(4-NHCONH2)]L[Lys(iPr)]P[dA]-NH2)",degradation of degarelix,"[1]; 10% DEAPA in DMF, up to 24 h",No significant degradation
same,increase of hydantoin impurity,"[1]; 10% DEAPA in DMF, up to 24 h",no increase
same,Hydantoin impurity (VI) at RRT 1.03,"[1]; Test 1, about 170 g/L in DMF with 10% DEAPA",0.10%
same,purity (HPLC),"[1]; Test 1, about 170 g/L in DMF with 10% DEAPA, t0",99.17%
same,purity (HPLC),[1]; [4],99.10%
same,"specified impurity RRT 0.85 (X, unknown)",[1]; [4],0.06%
same,Hydantoin impurity (VI) at RRT 1.03,"[1]; Test 2, about 17 g/L in DMF with 10% DEAPA",0.09%
same,purity (HPLC),"[1]; Test 2, about 17 g/L in DMF with 10% DEAPA, t0",99.18%
same,purity (HPLC),[1]; [5],99.10%
same,"specified impurity RRT 0.85 (X, unknown)",[1]; [5],0.04%
same,Degarelix %,[2]; [6],99.97%
same,Hydantoin VI %,[2]; [6],0.03%
same,Degarelix %,[2]; [7],99.96%
same,Hydantoin VI %,[2]; [7],0.04%
same,Degarelix %,[2]; [8],98.7%
same,Hydantoin VI %,[2]; [8],1.3%
same,Degarelix %,[2]; [9],99.96%
same,Hydantoin VI %,[2]; [9],0.04%
same,amount of hydantoin impurity (VI),[2]; after 24-hours treatment with DEAPA (10% in DMF),unchanged
same,Degarelix %,[2]; [10],99.97%
same,Hydantoin VI %,[2]; [10],0.03%
C1CCNCC1 [piperidine],LD50,mice,30 mg/kg
same,LD50,rabbits,145 mg/kg
same,LD50,rats,400 mg/kg
H-Ala-Lys-Asp-Gly-Tyr-Ile-OH (H-AKDGYI-OH) [III],Aspartimide (IV) (A %),"[3]; 5% TMG in DMF, 4 h at RT, resin-bound",85.5 A %
same,III (A %),"[3]; 5% TMG in DMF, 4 h at RT, resin-bound, sum of alpha- and beta-peptide",14.5^a A %
same,Δ Asp (A %),"[3]; 5% TMG in DMF, 4 h at RT, relative to initial 2.6%",82.9 A %
same,Aspartimide (IV) (A %),"[3]; 5% TMG in NBP, 4 h at RT, resin-bound",72.9 A %
same,III (A %),"[3]; 5% TMG in NBP, 4 h at RT, resin-bound, sum of alpha- and beta-peptide",27.1^a A %
same,Δ Asp (A %),"[3]; 5% TMG in NBP, 4 h at RT, relative to initial 2.6%",70.3 A %
same,Aspartimide (IV) (A %),[3]; [11],10.1 A %
same,III (A %),[3]; [11],89.9 A %
same,Δ Asp (A %),"[3]; 10% DEAPA in DMF, 4 h at RT, relative to initial 2.6%",7.5 A %
same,Aspartimide (IV) (A %),[3]; [12],4.2 A %
same,III (A %),[3]; [12],95.8 A %
same,Δ Asp (A %),"[3]; 10% DEAPA in NBP, 4 h at RT, relative to initial 2.6%",1.6 A %
same,Aspartimide (IV) (A %),[3]; [13],29.3 A %
same,III (A %),[3]; [13],70.7 A %
same,Δ Asp (A %),"[3]; 20% TBA in DMF, 4 h at RT, relative to initial 2.6%",26.7 A %
same,Aspartimide (IV) (A %),[3]; [14],20.0 A %
same,III (A %),[3]; [14],80.0 A %
same,Δ Asp (A %),"[3]; 20% TBA in NBP, 4 h at RT, relative to initial 2.6%",17.4 A %
same,Aspartimide (IV) (A %),[3]; [15],7.2 A %
same,III (A %),[3]; [15],86.5 A %
same,Piperidides (V) (A %),[3]; [15],6.3 A %
same,Δ Asp (A %),"[3]; 20% piperidine in DMF, 4 h at RT, additional aspartimide impurities incl. piperidides relative to initial 2.6%",10.9 A %
same,Aspartimide (IV) (A %),[3]; [16],7.1 A %
same,III (A %),[3]; [16],90.0 A %
same,Piperidides (V) (A %),[3]; [16],2.9 A %
same,Δ Asp (A %),"[3]; 20% piperidine in NBP, 4 h at RT, incl. piperidides, relative to initial 2.6%",7.4 A %
same,Aspartimide (IV) (A %),[3]; [17],2.6 A %
same,III (A %),[3]; [17],97.4 A %
